T1: N-acetyl-proline-glycine-proline
T1 chain: PGP


Molecular target: T1, N-acetyl-proline-glycine-proline

| Protein | degradation of Ac-PGP (residual Ac-PGP by ESI-LC-MS/MS after 24 h; 1 µg/ml enzyme, 100 µg/ml Ac-PGP) |
| --- | --- |
| recombinant human angiotensin converting enzyme (protein) LDPGLQPGNFSADEAGAQLFAQSYNSSAEQVLFQSVAASWAHDTNITAENARRQEEAALLSQEFAEAWGQKAKELYEPIWQNFTDPQLRRIIGAVRTLGSANLPLAKRQQYNALLSNMSRIYSTAKVCLPNKTATCWSLDPDLTNILASSRSYAMLLFAWEGWHNAAGIPLKPLYEDFTALSNEAYKQDGFTDTGAYWRSWYNSPTFEDDLEHLYQQLEPLYLNLHAFVRRALHRRYGDRYINLRGPIPAHLLGDMWAQSWENIYDMVVPFPDKPNLDVTSTMLQQGWNATHMFRVAEEFFTSLELSPMPPEFWEGSMLEKPADGREVVCHASAWDFYNRKDFRIKQCTRVTMDQLSTVHHEMGHIQYYLQYKDLPVSLRRGANPGFHEAIGDVLALSVSTPEHLHKIGLLDRVTNDTESDINYLLKMALEKIAFLPFGYLVDQWRWGVFSGRTPPSRYNFDWWYLRTKYQGICPPVTRNETHFDAGAKFHVPNVTPYIRYFVSFVLQFQFHEALCKEAGYEGPLHQCDIYRSTKAGAKLRKVLQAGSSRPWQEVLKDMVGLDALDAQPLLKYFQPVTQWLQEQNQQNGEVLGWPEYQWHPPLPDNYPEGIDLVTDEAEASKFVEEYDRTSQVVWNEYAEANWNYNTNITTETSKILLQKNMQIANHTLKYGTQARKFDVNQLQNTTIKRIIKKVQDLERAALPAQELEEYNKILLDMETTYSVATVCHPNGSCLQLEPDLTNVMATSRKYEDLLWAWEGWRDKAGRAILQFYPKYVELINQAARLNGYVDAGDSWRSMYETPSLEQDLERLFQELQPLYLNLHAYVRRALHRHYGAQHINLEGPIPAHLLGNMWAQTWSNIYDLVVPFPSAPSMDTTEAMLKQGWTPRRMFKEADDFFTSLGLLPVPPEFWNKSMLEKPTDGREVVCHASAWDFYNGKDFRIKQCTTVNLEDLVVAHHEMGHIQYFMQYKDLPVALREGANPGFHEAIGDVLALSVSTPKHLHSLNLLSSEGGSDEHDINFLMKMALDKIAFIPFSYLVDQWRWRVFDGSITKENYNQEWWSLRLKYQGLCPPVPRTQGDFDPGAKFHIPSSVPYIRYFVSFIIQFQFHEALCQAAGHTGPLHKCDIYQSKEAGQRLATAMKLGFSRPWPEAMQLITGQPNMSASAMLSYFKPLLDWLRTENELHGEKLGWPQYNWTPNSARSEGPLPDSGRVSFLGLDLDAQQARVGQWL | ACE degraded 70% of Ac-PGP |
| recombinant human aminopeptidase N (protein) KAWNRYRLPNTLKPDSYRVTLRPYLTPNDRGLYVFKGSSTVRFTCKEATDVIIIHSKKLNYTLSQGHRVVLRGVGGSQPPDIDKTELVEPTEYLVVHLKGSLVKDSQYEMDSEFEGELADDLAGFYRSEYMEGNVRKVVATTQMQAADARKSFPCFDEPAMKAEFNITLIHPKDLTALSNMLPKGPSTPLPEDPNWNVTEFHTTPKMSTYLLAFIVSEFDYVEKQASNGVLIRIWARPSAIAAGHGDYALNVTGPILNFFAGHYDTPYPLPKSDQIGLPDFNAGAMENWGLVTYRENSLLFDPLSSSSSNKERVVTVIAHELAHQWFGNLVTIEWWNDLWLNEGFASYVEYLGADYAEPTWNLKDLMVLNDVYRVMAVDALASSHPLSTPASEINTPAQISELFDAISYSKGASVLRMLSSFLSEDVFKQGLASYLHTFAYQNTIYLNLWDHLQEAVNNRSIQLPTTVRDIMNRWTLQMGFPVITVDTSTGTLSQEHFLLDPDSNVTRPSEFNYVWIVPITSIRDGRQQQDYWLIDVRAQNDLFSTSGNEWVLLNLNVTGYYRVNYDEENWRKIQTQLQRDHSAIPVINRAQIINDAFNLASAHKVPVTLALNNTLFLIEERQYMPWEAALSSLSYFKLMFDRSEVYGPMKNYLKKQVTPLFIHFRNNTNNWREIPENLMDQYSEVNAISTACSNGVPECEEMVSGLFKQWMENPNNNPIHPNLRSTVYCNAIAQGGEEEWDFAWEQFRNATLVNEADKLRAALACSKELWILNRYLSYTLNPDLIRKQDATSTIISITNNVIGQGLVWDFVQSNWKKLFNDYGGGSFSFSNLIQAVTRRFSTEYELQQLEQFKKDNEETGFGSGTRALEQALEKTKANIKWVKENKEVVLQWFTENSK | APN had no activity |
